Source: the supplement of paper PMC9112550, “Optimization of the antimicrobial peptide Bac7 by deep mutational scanning” (BMC Biology, 2022)

System: Escherichia coli TOP10
Experiment: shrunken log2 fold change of peptide-encoding DNA abundance (4.5 h post-induction vs induction); higher = less antimicrobial activity (less host growth inhibition)
Conditions: time post-induction: 4.5 h; library: site-saturation at positions 5, 18, 19, 20
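Also: peptides expressed intracellularly from a pBAD plasmid library in pooled LB shake-flask culture, induced with 0.3% L-arabinose, DNA abundance read by NGS, three biological replicates, DESeq2 with apeglm shrinkage.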

Sequence | shrunken log2 fold change
RRIRYRPPRLPRPRPRPRWDPRP | -0.0245
RRIRCRPPRLPRPRPRPWITPRP | -1.47
RRIRYRPPRLPRPRPRPVFQPRP | -0.503
RRIRQRPPRLPRPRPRPRWTPRP | 0.25
RRIRWRPPRLPRPRPRPLINPRP | -0.229
RRIRIRPPRLPRPRPRPYTPPRP | -0.825
RRIRFRPPRLPRPRPRPWSIPRP | -0.0103
RRIRYRPPRLPRPRPRPVMWPRP | 3.51
RRIRHRPPRLPRPRPRPAHRPRP | 0.162
RRIRCRPPRLPRPRPRPRSHPRP | -0.00365
RRIRTRPPRLPRPRPRPDLGPRP | -0.117
RRIRARPPRLPRPRPRPFTRPRP | 0.105
RRIRLRPPRLPRPRPRPAVRPRP | 0.0913
RRIRIRPPRLPRPRPRPIDDPRP | 0.0145
RRIRGRPPRLPRPRPRPNAKPRP | 1.22
RRIRVRPPRLPRPRPRPLFPPRP | 0.0958
RRIRGRPPRLPRPRPRPGTHPRP | 0.508
RRIRIRPPRLPRPRPRPASKPRP | -0.116
RRIRQRPPRLPRPRPRPGLIPRP | -0.118
RRIRHRPPRLPRPRPRPERGPRP | 1.02
RRIRWRPPRLPRPRPRPWCWPRP | 0.304
RRIRDRPPRLPRPRPRPPLEPRP | 0.699
RRIRQRPPRLPRPRPRPRIEPRP | 0.111
RRIRTRPPRLPRPRPRPFSNPRP | -0.405
RRIRNRPPRLPRPRPRPGRSPRP | 0.17

Sequence | shrunken log2 fold change
RRIRGRPPRLPRPRPRPMLSPRP | 0.393
RRIRMRPPRLPRPRPRPWAYPRP | -0.012
RRIRGRPPRLPRPRPRPNNQPRP | -0.011
RRIRMRPPRLPRPRPRPVHQPRP | -0.112
RRIRYRPPRLPRPRPRPPIQPRP | -0.589
RRIRDRPPRLPRPRPRPHDKPRP | 0.0278
RRIRYRPPRLPRPRPRPKLTPRP | -0.173
RRIRKRPPRLPRPRPRPSGYPRP | -0.0136
RRIRPRPPRLPRPRPRPVPEPRP | 0.0758
RRIRPRPPRLPRPRPRPLVEPRP | 0.846
RRIRARPPRLPRPRPRPTGGPRP | 0.836
RRIRVRPPRLPRPRPRPYDGPRP | -0.00822
RRIRVRPPRLPRPRPRPNPRPRP | 0.21
RRIRRRPPRLPRPRPRPNQYPRP | -0.506
RRIRRRPPRLPRPRPRPDMTPRP | 0.0544
RRIRHRPPRLPRPRPRPFKEPRP | -0.289
RRIRMRPPRLPRPRPRPPSNPRP | 0.104
RRIRVRPPRLPRPRPRPCNDPRP | -0.437
RRIRGRPPRLPRPRPRPQPSPRP | 0.65
RRIRLRPPRLPRPRPRPAKGPRP | -0.00764
RRIRTRPPRLPRPRPRPVGVPRP | 0.234
RRIRERPPRLPRPRPRPYMYPRP | -0.501
RRIRYRPPRLPRPRPRPNWRPRP | 0.326
RRIRMRPPRLPRPRPRPYDKPRP | -0.351
RRIRLRPPRLPRPRPRPKVQPRP | 0.22

Sequence | shrunken log2 fold change
RRIRWRPPRLPRPRPRPHLCPRP | -0.147
RRIRARPPRLPRPRPRPRFGPRP | 0.469
RRIRERPPRLPRPRPRPIAWPRP | -0.199
RRIRSRPPRLPRPRPRPCQRPRP | -0.0305
RRIRFRPPRLPRPRPRPLQNPRP | 0.0294
RRIRNRPPRLPRPRPRPWNSPRP | -0.281
RRIRGRPPRLPRPRPRPMQWPRP | -0.0537
RRIRCRPPRLPRPRPRPVGIPRP | -0.24
RRIRSRPPRLPRPRPRPQCEPRP | 0.00747
RRIRFRPPRLPRPRPRPWVSPRP | -0.272
RRIRFRPPRLPRPRPRPCLFPRP | -0.264
RRIRFRPPRLPRPRPRPGLSPRP | -0.0429
RRIRARPPRLPRPRPRPSGQPRP | 0.251
RRIRQRPPRLPRPRPRPQTFPRP | 0.028
RRIRARPPRLPRPRPRPAWYPRP | 0.0311
RRIRSRPPRLPRPRPRPDEVPRP | 0.0037
RRIRWRPPRLPRPRPRPVKHPRP | 0.0838
RRIRARPPRLPRPRPRPHSKPRP | -0.154
RRIRARPPRLPRPRPRPIRDPRP | 0.114
RRIRSRPPRLPRPRPRPHDNPRP | -0.308
RRIRWRPPRLPRPRPRPWRNPRP | 0.0636
RRIRHRPPRLPRPRPRPALEPRP | -0.069
RRIRVRPPRLPRPRPRPDHYPRP | -0.149
RRIRQRPPRLPRPRPRPYAHPRP | -0.249
RRIRKRPPRLPRPRPRPHICPRP | 0.00561

Sequence | shrunken log2 fold change
RRIRARPPRLPRPRPRPDVEPRP | 0.389
RRIRTRPPRLPRPRPRPCECPRP | 0.0538
RRIRARPPRLPRPRPRPNNYPRP | -0.356
RRIRHRPPRLPRPRPRPLNRPRP | 0.0215
RRIRFRPPRLPRPRPRPSLRPRP | -0.262
RRIRRRPPRLPRPRPRPHKNPRP | 0.126
RRIRNRPPRLPRPRPRPYCMPRP | -0.776
RRIRRRPPRLPRPRPRPPSEPRP | 0.974
RRIRVRPPRLPRPRPRPSMNPRP | 0.331
RRIRTRPPRLPRPRPRPHDEPRP | 0.00408
RRIRERPPRLPRPRPRPNADPRP | -0.0389
RRIRGRPPRLPRPRPRPHSTPRP | 0.517
RRIRRRPPRLPRPRPRPALGPRP | 0.269
RRIRFRPPRLPRPRPRPQLEPRP | 0.118
RRIRWRPPRLPRPRPRPSKYPRP | -0.632
RRIRVRPPRLPRPRPRPVHPPRP | 0.312
RRIRHRPPRLPRPRPRPTLHPRP | 0.0488
RRIRMRPPRLPRPRPRPDSKPRP | 0.732
RRIRLRPPRLPRPRPRPNRTPRP | 0.0829
RRIRARPPRLPRPRPRPTNAPRP | 0.434
RRIRERPPRLPRPRPRPLMDPRP | -0.134
RRIRDRPPRLPRPRPRPRDSPRP | -0.153
RRIRARPPRLPRPRPRPDAGPRP | 0.94
RRIRQRPPRLPRPRPRPLCHPRP | -0.142
RRIRCRPPRLPRPRPRPSCKPRP | -0.685

Sequence | shrunken log2 fold change
RRIRSRPPRLPRPRPRPIVIPRP | -0.872
RRIRFRPPRLPRPRPRPYLEPRP | -0.0738
RRIRVRPPRLPRPRPRPQCMPRP | -0.528
RRIRPRPPRLPRPRPRPVTEPRP | -0.027
RRIRMRPPRLPRPRPRPNSIPRP | -0.283
RRIRQRPPRLPRPRPRPWPYPRP | 0.0155
RRIRFRPPRLPRPRPRPPWVPRP | 0.401
RRIRFRPPRLPRPRPRPSKAPRP | -0.367
RRIRRRPPRLPRPRPRPYSLPRP | -0.0861
RRIRKRPPRLPRPRPRPLEWPRP | -0.0047
RRIRERPPRLPRPRPRPQETPRP | 0.0209
RRIRSRPPRLPRPRPRPVCEPRP | 0.369
RRIRCRPPRLPRPRPRPRQRPRP | 0.645
RRIRGRPPRLPRPRPRPKKTPRP | 0.181
RRIRNRPPRLPRPRPRPTQKPRP | 0.241
RRIRKRPPRLPRPRPRPPSYPRP | 0.667
RRIRDRPPRLPRPRPRPIMMPRP | -0.232
RRIRPRPPRLPRPRPRPFFIPRP | -0.249
RRIRVRPPRLPRPRPRPVGCPRP | 0.417
RRIRGRPPRLPRPRPRPVSNPRP | 0.568
RRIRQRPPRLPRPRPRPLFLPRP | -0.65
RRIRWRPPRLPRPRPRPANVPRP | -0.624
RRIRIRPPRLPRPRPRPMYFPRP | -0.609
RRIRPRPPRLPRPRPRPMWPPRP | 0.213
RRIRYRPPRLPRPRPRPTSFPRP | -0.255
